The source of these data is patent US20240034757A1 (OXFORD UNIVERSITY INNOVATION, published 2024).

Where two headings read alike, the source gives them in different places.

In assay [1] the target is T1, CCL8_HUMAN (human, UniProt P80075 24-99).
T1 sequence (looked up): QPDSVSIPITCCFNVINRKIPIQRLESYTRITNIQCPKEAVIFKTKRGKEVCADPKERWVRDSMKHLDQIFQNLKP
Briefly: BLI, dose titration.

Assay [2] has as its target T2, CCL5_HUMAN (human, UniProt P13501 24-91).
T2 sequence: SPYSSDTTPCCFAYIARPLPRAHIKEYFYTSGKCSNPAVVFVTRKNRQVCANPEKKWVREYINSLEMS
The experiment in a line: yeast surface display FACS.

The target of assay [3] is T1, CCL8_HUMAN. The experiment in a line: yeast surface display FACS.
A further assay has as its target T3, CCL15_HUMAN (human, UniProt Q16663 22-113).
T3 sequence: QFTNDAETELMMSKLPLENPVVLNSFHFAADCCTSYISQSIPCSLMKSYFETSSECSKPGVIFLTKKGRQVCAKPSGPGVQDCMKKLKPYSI
The experiment in a line: yeast surface display FACS.

In the next assay the target is T4, CCL25_HUMAN (human, UniProt O15444 24-150).
T4 sequence: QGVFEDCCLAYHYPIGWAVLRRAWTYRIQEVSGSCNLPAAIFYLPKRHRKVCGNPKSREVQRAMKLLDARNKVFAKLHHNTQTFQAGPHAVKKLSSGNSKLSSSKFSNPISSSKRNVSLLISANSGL
The experiment in a line: yeast surface display FACS.

For a further assay, the target named is T5, CCL19_HUMAN (human, UniProt Q99731 22-98).
T5 sequence: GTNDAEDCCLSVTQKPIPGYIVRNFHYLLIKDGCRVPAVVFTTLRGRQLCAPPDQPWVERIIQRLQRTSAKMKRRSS
The experiment in a line: yeast surface display FACS.

Assay [4] addresses T6, CCL18_HUMAN (human, UniProt P55774 21-89).
T6 sequence: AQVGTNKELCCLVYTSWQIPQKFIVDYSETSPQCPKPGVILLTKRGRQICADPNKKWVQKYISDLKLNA
The experiment in a line: yeast surface display FACS.

The target in assay [5] is T7, CCL11_HUMAN (human, UniProt P51671 24-97). Briefly: yeast surface display FACS.
T7 sequence (P51671 24-97 limits assumed): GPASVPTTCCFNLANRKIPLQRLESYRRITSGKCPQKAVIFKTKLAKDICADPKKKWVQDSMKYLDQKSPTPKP
Another assay concerns the target T8, CCL17_HUMAN (human, UniProt Q92583 24-94).
T8 sequence: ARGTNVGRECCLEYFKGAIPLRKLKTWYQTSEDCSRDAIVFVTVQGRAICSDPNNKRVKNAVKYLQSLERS
Briefly: yeast surface display FACS.

Another assay deals with CXCL12_HUMAN (human, UniProt P48061 22-89). The experiment in a line: yeast surface display FACS.
Sequence of CXCL12_HUMAN (P48061 22-89 limits assumed): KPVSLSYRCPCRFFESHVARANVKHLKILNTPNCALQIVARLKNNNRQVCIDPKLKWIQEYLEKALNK
The target of assay [6] is T9, CCL1_HUMAN (human, UniProt P22362 24-96).
T9 sequence: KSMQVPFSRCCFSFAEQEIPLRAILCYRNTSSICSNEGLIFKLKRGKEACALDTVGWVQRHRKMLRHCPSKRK
Briefly: yeast surface display FACS.

In assay [7] the target is T6, CCL18_HUMAN. The experiment in a line: yeast surface display FACS. This is another data set of the same source.
Assay [8] deals with T2, CCL5_HUMAN. The experiment in a line: yeast surface display FACS. This is another data set of the same source.
The target of assay [9] is T7, CCL11_HUMAN. The experiment in a line: yeast surface display FACS. The source holds these as a separate data set.
Assay [10] concerns the target T9, CCL1_HUMAN. Briefly: yeast surface display FACS. The source holds these as a separate data set.
The next assay concerns the target T10, CCL3_HUMAN (human, UniProt P10147 24-92).
T10 sequence: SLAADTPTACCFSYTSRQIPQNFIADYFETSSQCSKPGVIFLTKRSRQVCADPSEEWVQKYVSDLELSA
Briefly: yeast surface display FACS.

The next assay deals with T11, CXCL1_HUMAN (human, UniProt P09341 35-107).
T11 sequence: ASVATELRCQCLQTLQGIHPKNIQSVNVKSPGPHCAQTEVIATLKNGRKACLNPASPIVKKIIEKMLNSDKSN
The experiment in a line: BLI. For orientation: Biolayer interferometry detects binding as a change in optical thickness at a sensor tip.

The next assay concerns the target T12, CXCL3_HUMAN (human, UniProt P19876 35-107).
T12 sequence: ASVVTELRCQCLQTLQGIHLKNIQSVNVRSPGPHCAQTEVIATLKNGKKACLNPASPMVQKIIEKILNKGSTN
The experiment in a line: BLI.

Another assay has as its target T13, CCL4_HUMAN (human, UniProt P13236 24-92).
T13 sequence: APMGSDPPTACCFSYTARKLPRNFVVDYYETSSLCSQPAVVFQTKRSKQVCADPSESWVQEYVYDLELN
The experiment in a line: yeast surface display FACS.

B1: EVA1(P672 22-32) hybrid protein (designed binder)
chain: EDDEDYEDFFKPVTCYFLVAENKTGYPTIVACKQDCNGTTETAPNGTRCFSIGDEGLRRMTANLPYDCPLGQCSNGDCIPKETYEVCYRRNWRDKKN
A word on the Kd: it is a measure of binding affinity in units of concentration. Low values mean a tighter complex, high ones a looser complex. As for B1, the Kd with CCL8_HUMAN [1] turned out to be 490 nM.

B2: P698_RHISA (other)
chain: NEDDSSDYYDASPMNCSSMSVNSTMGWLSMNCTMSCNGTTFPLSNSTHCFHSYTNLTVQSRMETMTYNCSVGTCSNGTCVENGTTTTCW
Take B2: the binding result with CCL5_HUMAN [2] and in the assay with CCL8_HUMAN [3] was “binds” in each case.

B3: P1006_AMBCA (other)
chain: DTIGGIPGCGDPATTSAPEDQPKHYAVRTDKNGCKVMVIGTWMTKEDHNLLPPYISKERAPSGKVQLPASCKKNCHGKLKNLPNGTPCREVFGDLRRRRKHIKDGCKVGKCQNGLCVSEERIISCYLPPNITDPRPTHGPLAE
As to B3, the binding result in the assay with CCL15_HUMAN, with CCL25_HUMAN, in the assay with CCL5_HUMAN [2] and with CCL19_HUMAN was “binds” in each case.

B4: P1011_AMBTR (other)
chain: EKDTPKNIPGCEDAGTTAAPPADNPKHYAVYTDKNGCTFKVIGTWMTKEDHRRLPVSLRRVRASSGRVKLPASCQKICKHSVKKFPEGTPCRLVTRDPIKGKNHIKNGCIRGYCSSGVCVSDNRSISCYVLPNNTELTSPSGSFAE
Turning to B4, the binding result in the assay with CCL25_HUMAN, with CCL18_HUMAN [4], with CCL5_HUMAN [2], in the assay with CCL11_HUMAN [5] and with CCL17_HUMAN was “binds” in each case.

B5: P1209_AMBPA (other)
chain: KTDTKNAAGELPPKVAIPGCEDPATTKAPLPDDPRYYGVTIDKDGCQRKVLGSSQRQQRQVQNGRKPGRKGRGRRPVFVDLKLTVDCKRKCNGTYSQLPDGEPCLVCDGEPYGRHRTIKGGCYQGNCSSGQCHRGERKVNCYIPKNITNNVLNSVNLAE
Turning to B5, the binding result with CXCL12_HUMAN, in the assay with CCL1_HUMAN [6], with CCL18_HUMAN [7], in the assay with CCL5_HUMAN [8] and with CCL11_HUMAN [9] was “binds” each time.

B6: P1005_AMBMA (other)
chain: EKDTPKNIPGCGDTGTTAAPPADNPKHFAVYTDKHGCTIKVIGTWMTKEDHSRLPVSLRRVRASSGRVMLPASCQKICNDTVKNFPEGTPCRLVTGDPIKGKNHIKDGCIRGYCSSGVCVSDKRNISCYVPPN
For B6, the binding result in the assay with CCL1_HUMAN [10], with CCL3_HUMAN, with CCL5_HUMAN [2], in the assay with CCL19_HUMAN, with CCL11_HUMAN [5] and with CCL17_HUMAN was “binds” each time.

B7: P943_IXORI (other)
chain: RSKQPTASQSSKNSIKAEFCDTNCTQGTNGAWSGCSEGCFCVHVGNNTKGRCMKLSSDYDYTTQ
On to B7, for which the Kd came to 540 nM in the assay with CXCL1_HUMAN and 270 nM with CXCL3_HUMAN.

B8: P1014_AMBCA (other)
chain: DIIGGIPGCGDPTTTSAPEVPPKHFAVRTDKDGCTLMIIGTWMTTEDHNRLPPDIGEKRAPYGRVQLPASCKKNCHGKVKNLPNGTPCREVFGDPRRGRKHIKNGCTVGKCQSGLCVTDKRIISCYIPPNITDPIPTHGPWAE
In the case of B8, the binding result with CCL4_HUMAN is “binds”.
